One test deals with T1, S100A9 (human) (UniProt P06702).
T1 sequence (looked up): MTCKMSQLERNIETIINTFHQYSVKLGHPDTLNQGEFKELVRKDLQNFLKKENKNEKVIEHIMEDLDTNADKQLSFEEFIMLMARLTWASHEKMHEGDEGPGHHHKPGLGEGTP
The test is described as follows: cell-based or functional assay.

Test [1] concerns the target apoptosis-associated speck-like protein containing a caspase-recruitment domain (ASC) (human) (UniProt Q9ULZ3). The test is described as follows: cell-based or functional assay.

A value given as a limit tells only on which side of the number the result lay.

This note sets out measurements from patent publication US20180050011A1.

Sequence of apoptosis-associated speck-like protein containing a caspase-recruitment domain (ASC) (human) (Q9ULZ3 whole entry, the tested form may be a part): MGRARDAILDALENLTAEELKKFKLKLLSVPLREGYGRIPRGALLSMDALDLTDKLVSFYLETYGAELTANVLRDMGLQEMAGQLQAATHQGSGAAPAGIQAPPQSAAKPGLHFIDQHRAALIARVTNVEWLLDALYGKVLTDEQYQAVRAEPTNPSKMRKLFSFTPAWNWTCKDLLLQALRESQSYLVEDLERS

For the molecule “S100A9 high-affinity chimeric (CD33-IgG1) decoy receptor (from UniProt P20138 18-259) (Fc fusion)”, in the test with S100A9 (human), the colony-forming capacity of MDS BM-MNC is less than 6.6 fold; the reduction of the fraction of pyroptotic cells, CD33+ cells (MDS BM-MNC in autologous BM plasma) turned out to be 68%; the reduction of the fraction of pyroptotic cells, CD71+ cells (MDS BM-MNC in autologous BM plasma) stood at 64%; the reduction of the fraction of pyroptotic cells, progenitor cells (MDS BM-MNC in autologous BM plasma) is 23%. The same molecule had a reduction of the fraction of pyroptotic cells, stem cells (MDS BM-MNC in autologous BM plasma) with S100A9 (human) of 44%.

B1: pyrin domain-only protein (POP)-1 (protein, UniProt Q8WXC3 1-89, looked up)
chain: MGTKREAILKVLENLTPEELKKFKMKLGTVPLREGFERIPRGALGQLDIVDLTDKLVASYYEDYAAELVVAVLRDMRMLEEAARLQRAA
B1 registered an NLRP3 activation, as measured by ASC oligomerization (flow cytometry, U2AF1-S34F cells transfected with POP-1) in test [1] of 40 % reduction.
